Results taken from article PMC6638984, “Increased association between Epstein-Barr virus EBNA2 from type 2 strains and the transcriptional repressor BS69 restricts EBNA2 activity” (PLoS Pathogens, 2019).
Residue numbers refer to the chain shown, from its start. In names and notes the source's numbering stands.

B1: EBNA2_348-422 SD + m3 T1: type 2 EBNA2 polypeptide 348–422 containing both the SD and motif 3 (PSIDP) mutations (protein)
chain: SMPQLSPVVSLHQGQGPENSPTPGPSTAGPVCRVTPSATPDISPIHEPESSDSEEPPFLFPDDWYPPSIDPAELD
modifications: left off: His6, N-terminal, cleaved
notes: type 2 EBNA2 polypeptide 348–422 containing both the SD and motif 3 (PSIDP) mutations
B2: T2 EBNA2_348-422: type 2 EBNA2 polypeptide containing motif 1, 2 and 3, amino acids 348–422 (protein)
chain: B1 chain with D62S, S68T, I69L, D70E
modifications: left off: His6, N-terminal, cleaved
B3: T2 EBNA2_348-422 SD: type 2 EBNA2 polypeptide 348–422 with an S409D mutation (protein)
chain: B1 chain with S68T, I69L, D70E
modifications: left off: His6, N-terminal, cleaved
notes: type 2 EBNA2 polypeptide 348–422 with an S409D mutation
B4: EBNA2_348-422 SD + m3 mt: type 2 EBNA2 polypeptide 348–422 containing both the SD and motif 3 (ATAEA) mutations (protein)
chain: B1 chain with P67A, S68T, I69A, D70E, P71A
modifications: left off: His6, N-terminal, cleaved
notes: type 2 EBNA2 polypeptide 348–422 containing both the SD and motif 3 (ATAEA) mutations
B5: T2 EBNA2_348-422 m3 T1: T2 EBNA2_348-422 with motif 3 PTLEP replaced with the type 1 sequence PSIDP (protein)
chain: B1 chain with D62S
modifications: left off: His6, N-terminal, cleaved
B6: T2 EBNA2_348-422 motif 3 mt: T2 EBNA2_348-422 with motif 3 mutated from PTLEP to ATAEA (protein)
chain: B1 chain with D62S, P67A, S68T, I69A, D70E, P71A
modifications: left off: His6, N-terminal, cleaved
notes: T2 EBNA2_348-422 with motif 3 mutated from PTLEP to ATAEA
B7: T2 EBNA2_348-412: type 2 EBNA2 polypeptide, amino acids 348–412, expressed and purified from E.coli (protein)
chain: SMPQLSPVVSLHQGQGPENSPTPGPSTAGPVCRVTPSATPDISPIHEPESSDSEEPPFLFPSDWY
modifications: left off: His6, N-terminal, cleaved
notes: type 2 EBNA2 polypeptide, amino acids 348–412, expressed and purified from E.coli

Molecular target: T1, BS69CC-MYND (BS69 amino acid 480–602, CC-MYND domain) (Homo sapiens, UniProt Q15326)
T1 construct: The BS69 CC-MYND domain (amino acids 480–602) was amplified from pCI-BS69; GST (N, cleaved yes); 6xHis (N, cleaved yes); made in house; host or cells: E. coli Rosetta 2 (DE3) pLysS
T1 sequence (Q15326 480-602): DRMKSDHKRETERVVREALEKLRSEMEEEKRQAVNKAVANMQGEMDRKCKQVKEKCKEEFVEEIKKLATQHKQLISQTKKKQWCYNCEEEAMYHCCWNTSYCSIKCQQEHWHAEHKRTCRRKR
Test: Isothermal titration calorimetry (ITC) of EBNA2 peptides and polypeptides binding to BS69CC-MYND
Conditions: 25°C, pH 7.5, 29 injections of 1.3 μl 0.3 mM EBNA2 polypeptide into 0.1 mM BS69CC-MYND, mean ± SD of 3 independent experiments, read-out: KD1 (binding event 1), two-site (two event) binding model
Source text: We hypothesised that the impaired gene activation and growth maintenance properties of type 2 EBNA2 may be the result of increased binding to BS69 as a result of the aspartate to serine amino acid difference adjacent to BS69 binding motif 2. […] We used isothermal titration calorimetry (ITC) to determine the affinity of peptide binding to the C-terminal region of BS69 (amino acid 480–602) comprising the CC-MYND domain that we expressed and purified from E.coli (Fig 1B and 1C). […] The difference in binding between type 1 and type 2 EBNA2 motif 2 peptides could be influenced by both the aspartate to serine change and differences in two other amino acids present in the sequence (Fig 1B and 1C).
The BS69 CC-MYND domain (amino acids 480–602) was amplified from pCI-BS69 containing the full length human BS69 sequence (gift from Dr Stéphane Ansieau) and cloned using SLIC into the SmaI and HindIII sites of pET49b+ to generate a construct expressing an N-terminal GST-6x Histidine tag BS69CC-MYND fusion protein (S2 Table).
Four commercially synthesized peptides (Peptide Synthetics) were used for ITC. These included BS69 binding motif 2 of type 1 EBNA2 (435–445) or type 2 EBNA2 (402–412) and putative BS69 binding motif 3 of type 1 EBNA2 (445–455) or type 2 EBNA2 (412–422).
Frozen protein was quickly thawed using running water and dialysed overnight at 4°C using Slide-A-Lyzer MINI Dialysis Units (Thermo Scientific) against ITC buffer (20mM Tris-HCl, 100mM NaCl and 1mM TCEP, pH 7.5). The next day, protein samples were centrifuged at 13000 rpm for 10 mins at 4 °C and the concentration was determined by NanoDrop spectroscopy (NanoDrop Technologies) with their respective molecular weights and extinction coefficients. EBNA2 peptides (1mM) and polypeptides (type 1, 0.3 mM and type 2, 0.6 mM) were titrated against BS69CC-MYND (0.1mM) at 25°C using a MicroCalTM iTC200 instrument (Malvern). For peptides, 13 x 3.0 μl injections were used for titration. For EBNA2 polypeptides 19 x 2.0 μl or 29 x 1.3 μl injections were used for titration. ITC data were corrected for non-specific heat and analysed using MicroCal Origin 7.0. The experiments were performed in triplicate alongside a control experiment with no BS69CC-MYND (buffer only in the cell). All polypeptides were used within 24 hrs of dialysis into ITC buffer.

Molecule | Kd
B1 | 8 nM
B2 | 9 nM
B3 | 8 ± 3 nM
B4 | 5 ± 1 nM

Same assay, conditions: 25°C, pH 7.5, 29 injections of 1.3 μl 0.3 mM EBNA2 polypeptide into 0.1 mM BS69CC-MYND, mean ± SD of 3 independent experiments, read-out: KD2 (binding event 2), two-site (two event) binding model

Molecule | Kd
B1 | 136 nM
B2 | 91 nM
B3 | 200 ± 26 nM
B4 | 94 ± 28 nM

Same assay, conditions: 25°C, pH 7.5, peptides 13 injections, polypeptides 19 injections, mean ± SD of 3 independent experiments

Molecule | -TΔS, one-site model | ΔG, one-site model | ΔH, one-site model
B2 | 45 kcal/mol | -8.20 ± 0.18 kcal/mol | –
B5 | 19.5 ± 1.27 kcal/mol | -7.80 ± 0.04 kcal/mol | -27.3 ± 1.23 kcal/mol
B6 | 17.2 kcal/mol | -8.50 ± 0.07 kcal/mol | –
B7 | 14.4 kcal/mol | -8.08 ± 0.06 kcal/mol | –

Same assay, conditions: 25°C, pH 7.5, peptides 13 injections, polypeptides 19 injections, mean ± SD of 3 independent experiments, listed as T2 EBNA2 348-422

Molecule | -TΔS, one-site model
B2 | 45.0 ± 1.84 kcal/mol

Same assay, conditions: 25°C, pH 7.5, peptides 13 injections, polypeptides 19 injections, mean ± SD of 3 independent experiments, listed as T2 EBNA2 348-422 m3 mt

Molecule | -TΔS, one-site model
B6 | 17.2 ± 0.79 kcal/mol

Same assay, conditions: 25°C, pH 7.5, peptides 13 injections, polypeptides 19 injections, mean ± SD of 3 independent experiments, listed as T2 EBNA2348-412

Molecule | -TΔS, one-site model
B7 | 14.4 ± 2.48 kcal/mol

Same assay, conditions: 29 injections, mean ± SD of 3 independent experiments

Molecule | -TΔS, event 1, two-site model | -TΔS, event 2, two-site model | n value, event 1, two-site model | n value, event 2, two-site model | ΔG, event 1, two-site model | ΔG, event 2, two-site model | ΔH, event 1, two-site model | ΔH, event 2, two-site model
B1 | 21.0 ± 0.95 kcal/mol | -4.62 ± 2.01 kcal/mol | 0.20 ± 0.01 | 0.20 ± 0.08 | -11.1 ± 0.17 kcal/mol | -9.44 ± 0.35 kcal/mol | -32.1 ± 1.12 kcal/mol | -4.82 ± 1.69 kcal/mol
B2 | 23.1 ± 0.14 kcal/mol | -8.04 ± 0.25 kcal/mol | 0.23 ± 0.01 | 0.21 ± 0.00 | -11.0 ± 0.28 kcal/mol | -9.62 ± 0.16 kcal/mol | -34.1 ± 0.14 kcal/mol | –
B3 | 11.6 ± 0.31 kcal/mol | 0.47 ± 1.33 kcal/mol | 0.22 ± 0.01 | 0.20 ± 0.00 | -11.0 ± 0.21 kcal/mol | -9.14 ± 0.08 kcal/mol | -22.7 ± 0.29 kcal/mol | -9.62 ± 1.32 kcal/mol
B4 | 20.4 ± 2.24 kcal/mol | -1.95 ± 2.10 kcal/mol | 0.20 ± 0.00 | 0.19 ± 0.01 | -9.60 ± 0.21 kcal/mol | -11.3 ± 0.12 kcal/mol | -31.7 ± 2.14 kcal/mol | -7.65 ± 1.89 kcal/mol
